Experimental data published in article PMC4264199, “Peptide Array on Cellulose Support—A Screening Tool to Identify Peptides with Dipeptidyl-Peptidase IV Inhibitory Activity within the Sequence of α-Lactalbumin” (International Journal of Molecular Sciences, 2014).
Ends that are not written are not given here.

target: T1, dipeptidyl-peptidase IV (DPP-IV) (Homo sapiens, UniProt P27487); assay: DPP-IV inhibition assay on SPOT-synthesized peptides (cleaved from cellulose membrane); format: biochemical; details: peptides cleaved from cellulose membrane, concentration not known (semi-quantitative); averages of four determinations from two experiments
T1 construct: purchased Creative BioMart (Shirley, NY, USA); host or cells: HEK293 human cells
Text: Recombinant human dipeptidyl-peptidase IV (DPP-IV, EC 3.4.14.5, expressed in HEK293 human cells, >95% purity, activity >5500 pmoles Gly–Pro–7-amido-4-methylcoumarin/min/µg) was purchased from Creative BioMart (Shirley, NY, USA) while polyclonal goat DPP-IV antibody and polyclonal donkey anti-goat secondary antibody conjugated to horseradish peroxidase were obtained from R&D Systems (Minneapolis, MN, USA). Pierce™ ECL western blotting substrate and protein-free (TBS) blocking buffer were from Thermo Scientific (Rockford, IL, USA). Gly–Pro–p-nitroanilide (H-Gly–Pro–p-NA∙HCl) was purchased from Bachem Americas (Torrance, CA, USA). Synthesized peptides (≥95% purity) were prepared and purified by GL Biochem (Shanghai) Ltd. (Shanghai, China).
Peptide arrays of deca-peptides spanning the entire α-lactalbumin sequence with a frame shift of one amino acid between successive sequences were prepared by Kinexus Bioinformatics Corporation (Vancouver, BC, Canada). The peptides were synthesized from the C-terminal amino acid using the SPOT technology consisting of the stepwise coupling of the Fmoc-protected amino acids and cleavage of the side chain protection groups. The α-lactalbumin-derived peptides were synthesized on trioxatridecanediamine (TOTD) and β-alanine-modified Whatman 540 cellulose membranes for the binding and inhibition assays, respectively. For the inhibition assay, the peptides were synthesized in large dots (5–7 mm in diameter) and the quality of the synthesis was verified by HPLC analysis of quality controls spots included on the membranes.
In order to determine the effect of the SPOT-synthesized peptides on the activity of the DPP-IV enzyme, the peptides were first cleaved from the cellulose support by incubating the membranes with gaseous ammonia overnight. Peptide spots (5 mm in diameter) were then punched out using a single-hole punch and transferred into microcentrifuge tubes containing 150 µL of acetonitrile (50% in 100 mM Tris–HCl buffer pH 8.0). The peptide solution (50 µL) was pipetted into a 96-well microplate with 35 µL of the chromogenic substrate Gly–Pro–p-NA (0.29 mM in 100 mM Tris–HCl buffer pH 8.0). The mixture was pre-incubated for 10 min at 37 °C, whereupon 15 µL of DPP-IV (25 mU/mL) was added and the enzymatic reaction was carried out for 30 min at 37 °C. The reaction was then terminated by addition of 100 µL of 1 M sodium acetate buffer pH 4.0 and the absorbance of the released p-nitroaniline was measured at 405 nm using a Tecan Infinite® 200 Pro microplate reader (ESBE Scientific, Markham, ON, Canada). Positive and negative controls (DPP-IV activity with no inhibitor and no DPP-IV activity, respectively) were prepared using punched peptide-free cellulose spots from the same membrane used for peptide synthesis, and adding Tris-HCl buffer in place of the sample and in place of the sample and enzyme solution, respectively.
One unit of DPP-IV was defined as the concentration of enzyme that releases 1 µmol per min of p-nitroaniline from Gly–Pro–p-NA (100 µM) at 37 °C and pH 8.0.

T1 sequence (P27487 whole entry): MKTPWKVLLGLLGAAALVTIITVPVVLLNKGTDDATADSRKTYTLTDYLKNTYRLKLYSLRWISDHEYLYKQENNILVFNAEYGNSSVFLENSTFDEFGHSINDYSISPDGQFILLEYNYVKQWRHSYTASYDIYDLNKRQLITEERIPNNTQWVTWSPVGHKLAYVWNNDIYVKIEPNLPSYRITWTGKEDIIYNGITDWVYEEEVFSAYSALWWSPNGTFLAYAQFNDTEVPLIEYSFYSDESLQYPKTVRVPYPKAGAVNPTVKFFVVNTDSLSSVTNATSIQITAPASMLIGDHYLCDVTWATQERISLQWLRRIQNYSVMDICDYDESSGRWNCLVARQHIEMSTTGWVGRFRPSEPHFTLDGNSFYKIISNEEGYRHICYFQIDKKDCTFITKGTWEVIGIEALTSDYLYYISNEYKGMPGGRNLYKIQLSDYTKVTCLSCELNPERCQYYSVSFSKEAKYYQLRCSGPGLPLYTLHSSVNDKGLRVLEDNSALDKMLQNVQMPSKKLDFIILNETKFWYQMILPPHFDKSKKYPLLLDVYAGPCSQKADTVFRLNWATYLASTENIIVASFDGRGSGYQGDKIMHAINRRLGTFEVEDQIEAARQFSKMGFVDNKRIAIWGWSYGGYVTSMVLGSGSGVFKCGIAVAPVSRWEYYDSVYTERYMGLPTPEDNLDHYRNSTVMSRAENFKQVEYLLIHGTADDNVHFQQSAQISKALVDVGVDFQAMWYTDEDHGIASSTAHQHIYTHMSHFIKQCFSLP

Row | Substance | Percent inhibition of DPP-IV activity, SPOT-synthesized deca-peptides [%]
1 | G4: α-lactalbumin-derived deca-peptide, residues 70–79 (Table S1) (SNICNISCDK; UniProt P00711 89-98, looked up, fragment) | 19
2 | G5: α-lactalbumin-derived deca-peptide, residues 71–80 (Table S1) (NICNISCDKF; UniProt P00711 90-99, looked up, fragment) | 25
3 | G7: α-lactalbumin-derived deca-peptide, residues 73–82 (Table S1) (CNISCDKFLD; UniProt P00711 92-101, looked up, fragment) | 17
4 | G8: α-lactalbumin-derived deca-peptide, residues 74–83 (Table S1) (NISCDKFLDD; UniProt P00711 93-102, looked up, fragment) | 19
5 | G9: α-lactalbumin-derived deca-peptide, residues 75–84 (Table S1) (ISCDKFLDDD; UniProt P00711 94-103, looked up, fragment) | 18
6 | H1: α-lactalbumin-derived deca-peptide, residues 78–87 (Table S1) (DKFLDDDLTD; UniProt P00711 97-106, looked up, fragment) | 19
7 | H2: α-lactalbumin-derived deca-peptide, residues 79–88 (Table S1) (KFLDDDLTDD; UniProt P00711 98-107, looked up, fragment) | 18
8 | H3: α-lactalbumin-derived deca-peptide, residues 80–89 (Table S1) (FLDDDLTDDI; UniProt P00711 99-108, looked up, fragment) | 18
9 | H4: α-lactalbumin-derived deca-peptide, residues 81–90 (Table S1) (LDDDLTDDIM; UniProt P00711 100-109, looked up, fragment) | 21
10 | H5: α-lactalbumin-derived deca-peptide, residues 82–91 (Table S1) (DDDITDDIMC; UniProt P00709 101-110, looked up, fragment) | 14
11 | H6: α-lactalbumin-derived deca-peptide, residues 83–92 (Table S1) (DDLTDDIMCV; UniProt P00711 102-111, looked up, fragment) | 19
12 | H7: α-lactalbumin-derived deca-peptide, residues 84–93 (Table S1) (DLTDDIMCVK; UniProt P00711 103-112, looked up, fragment) | 25
13 | H8: α-lactalbumin-derived deca-peptide, residues 85–94 (Table S1) (LTDDIMCVKK; UniProt P00711 104-113, looked up, fragment) | 20
14 | H9: α-lactalbumin-derived deca-peptide, residues 86–95 (Table S1) (TDDIMCAKKI; UniProt P00709 105-114, looked up, fragment) | 20
15 | H10: α-lactalbumin-derived deca-peptide, residues 87–96 (Table S1) (DDIMCVKKIL; UniProt P00711 106-115, looked up, fragment) | 20
16 | H11: α-lactalbumin-derived deca-peptide, residues 88–97 (Table S1) (DIMCVKKILD; UniProt P00711 107-116, looked up, fragment) | 15

Row | Substance | Percent inhibition of DPP-IV activity, SPOT-synthesized deca-peptides [%]
17 | HTSGYDTQAI [C10] | 11
18 | I1: α-lactalbumin-derived deca-peptide, residues 89–98 (Table S1) (IMCVKKILDK; UniProt P00711 108-117, looked up, fragment) | 17
19 | I2: α-lactalbumin-derived deca-peptide, residues 90–99 (Table S1) (MCAKKILDIK; UniProt P00709 109-118, looked up, fragment) | 19
20 | I3: α-lactalbumin-derived deca-peptide, residues 91–100 (Table S1) (CVKKILDKVG; UniProt P00711 110-119, looked up, fragment) | 26
21 | I6: α-lactalbumin-derived deca-peptide, residues 94–103 (Table S1) (KILDKVGINY; UniProt P00711 113-122, looked up, fragment) | 20
22 | I7: α-lactalbumin-derived deca-peptide, residues 95–104 (Table S1) (ILDKVGINYW; UniProt P00711 114-123, looked up, fragment) | 19
23 | I8: α-lactalbumin-derived deca-peptide, residues 96–105 (Table S1) (LDKVGINYWL; UniProt P00711 115-124, looked up, fragment) | 16
24 | I9: α-lactalbumin-derived deca-peptide, residues 97–106 (Table S1) (DKVGINYWLA; UniProt P00711 116-125, looked up, fragment) | 22
25 | I10: α-lactalbumin-derived deca-peptide, residues 98–107 (Table S1) (KVGINYWLAH; UniProt P00711 117-126, looked up, fragment) | 22
26 | I11: α-lactalbumin-derived deca-peptide, residues 99–108 (Table S1) (VGINYWLAHK; UniProt P00711 118-127, looked up, fragment) | 20
27 | J1: α-lactalbumin-derived deca-peptide, residues 100–109 (Table S1) (GIDYWLAHKA; UniProt P00709 119-128, looked up, fragment) | 25
28 | J2: α-lactalbumin-derived deca-peptide, residues 101–110 (Table S1) (IDYWLAHKAL; UniProt P00709 120-129, looked up, fragment) | 18
29 | J3: α-lactalbumin-derived deca-peptide, residues 102–111 (Table S1) (DYWLAHKALC; UniProt P00709 121-130, looked up, fragment) | 15
30 | J4: α-lactalbumin-derived deca-peptide, residues 103–112 (Table S1) (YWLAHKALCS; UniProt P00711 122-131, looked up, fragment) | 20
31 | J5: α-lactalbumin-derived deca-peptide, residues 104–113 (Table S1) (WLAHKALCSE; UniProt P00711 123-132, looked up, fragment) | 16

Second part, the substance after the results:

Row | Percent inhibition of DPP-IV activity, SPOT-synthesized deca-peptides [%] | Substance
32 | 9 | GLFQINNKIW [E7]
33 | 19 | HAEGTFTSDY [K10, HAEGTFTSDY, reference compound]
34 | 20 | HKALCSEKLD [J8]
35 | 21 | INNKIWCKDD [E11, INNKIWCKDD]
36 | 15 | IVQNNDSTEY [D8]
37 | 21 | IWCKDDQNPH [F4]
38 | 24 | KALCSEKLDQ [J9]
39 | 16 | KDDQNPHSSN [F7]
40 | 19 | KIWCKDDQNP [F3]
41 | 19 | KLDQWLCEKL [K4]
42 | 13 | LFQINNKIWC [E8]
